Experiment: yeast display, Sf9 membrane polyspecificity reagent, FACS + sequencing; frameworks hold sequencing errors
Outline: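 A nanobody's polyreactivity label depends on the gate it was sorted from. Yeast display cells were stained with 10% biotinylated, detergent-solubilized Sf9 membrane reagent for 1 hour at 4 °C, enriched on streptavidin microbeads and sorted by FACS. The low and high (top ~1%) gates were set on anti-HA fluorescence for expression and streptavidin fluorescence for reagent binding.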

Sequence: QVQLVESGGGLVQAGGSLRLSCAASGRTFGEYAMGWYRQAPGKERELVADITNGSRTYYADSVKGRFTISRDNAKNTVYLQMNSLKPEDTAVYYCAADWWKEVDYWGQGTHVTVSS
- polyreactivity (PSR sort gate): low polyreactivity

Sequence: QVQLVESGGGLVQAGGSLRLSCAASGYILFAYAMGWYRQAPGKERELVATITTSGGITYYADSVKGRFTISRDNAKNTVYLQMNSLKPDDTAVYYCAAAEGCGLVTYDYWGQGTQVTVSS
- polyreactivity (PSR sort gate): low polyreactivity

Sequence: QVQLVESGGGLVQAGGSLRLSCAASGFTFSLYAMGWYRQAPGKERELVAAITWSGTRTYYADSVKGRFTISRDNAKNTVYLQMNSLKPEDTAVYYCATQGYGYRGWRNLYDYDYWGQGTQVTVSS
- polyreactivity (PSR sort gate): high polyreactivity

Sequence: QVQLVESGGGLVQAGGSLRLSCDASGRTIRHNAMGWYRQAPGKERELVAAISKRGGRTYYADSVKGRFTISRDNAKNTVYLQMNSLKPEDTAVYYCATRSSGYSLGDYWGQGTQVTVSS
- polyreactivity (PSR sort gate): high polyreactivity

Sequence: QVQLVESGGGLVQAGGSLRLSCAASGGTFVFYAMGWYRQAPGKERELVAAISSAGRTYYADSVKGRFTISRDNAKNTVYLQMNSLKPEDTAVYYCAAVSSQYDGRYYYWGQGTQVTVSS
- polyreactivity (PSR sort gate): high polyreactivity

Sequence: QVQLVESGGGLVQAGGSLRLSCAASGRTSYWYAMGWYRQAPGKERELVAVISSGGSTYYADSVKGRFTISRDNAKNTVYLQMNSLKPEDTAVYYCNAVVGRWFPYNLSDYWGQGTQVTVSS
- polyreactivity (PSR sort gate): low polyreactivity

Sequence: QVQLVGSGGALVQAGGSLRLSCAASGRTFSYYAMGWYRQAPGKERELVASIRSSRTSTYYADSVKGRFTISRDNAKNTVYLQMNSLKPEDTAVYSCAKRYFTWRSTYNYWGQGTKVTVSS
- polyreactivity (PSR sort gate): high polyreactivity

Sequence: QVLLVESGGGLVQAGGSLRLSCAASGSNFYRNAMGWYRQAPGKERDFVAAISRSTGRTFYADSVKGRFTISRDNAKNTVYLQMKSLQPEDTAVYYCDAAAKAGTTPTRSYWRHDSWGQGTQVSVSS
- polyreactivity (PSR sort gate): high polyreactivity

Sequence: QVQLVESGGGLVQAGGSLRLSCAASGSILGQNAMGWSRQAPGKEREWVAAIRSSGGSTYYADSVKGRFTISRDNAKNTVYLQMNSRNPEDTAVYYCADDYYTSADYVDYYYWGQGTQVTVSS
- polyreactivity (PSR sort gate): low polyreactivity

Sequence: QVQLVESGGCLVQAGGSLRLSCAASGSIFGANTMGWYRQAPGKESELVAAISSGGNTYYADSVKGRFTISRDNAKNTVYLQMNSLKPEDTAVYYCNAQTRYRYQYGFLGGTGYNYWGQGTQVTVSS
- polyreactivity (PSR sort gate): low polyreactivity

Sequence: QVQLVESGGGLVQAGGSLRLSCPASGNIFVYYAMGWSRQAHGKERELVAAITSDVSTYYADSVKGRFTISRDNAKNTVYLQMNSLKPEDTAVYYCATTGYGSYVIYWGQGTQVTVSS
- polyreactivity (PSR sort gate): low polyreactivity

Sequence: QVQLVESGGGLVQAGGSLRFSCAASGSILYYNAKGWYIQAPGKEREFVAAISDSGSSTYYADSVKGRFTISRDTAKNTVYLQMNSLKPEDTADYYCNAYQGDKYDSWGQGSQVTVSS
- polyreactivity (PSR sort gate): low polyreactivity

Sequence: QVQLVESGGGLVQAGGSLRLSCAASGRILYHYAMGWYRQAPGKERELVAAITFSGDTTYYADSVKGRFTISRDNAKNTVYLQMNSLKPEDTAVYYCNTDYYWNYVSRLYDYWGQGTQVTVSS
- polyreactivity (PSR sort gate): high polyreactivity

Sequence: QVQLVESGGGLVQAGGSLRLSCAASGSTFKPNAMGWYRQAPGKERELVAAITSGSTYYADSVKGRFTISRDNAKNSVYLQMNSLIPEDSAVYYCATSFRGKSPYRNSGSYYFWGQGTQVTVSS
- polyreactivity (PSR sort gate): high polyreactivity

Sequence: QVQLVESGGGLVQAGGSLRLSCAASGSILARNAMGWYRQAPGKERELVAAISNSGSTNYADSVKGRFTISRDNAKNTVYLQMNSLKPEDPAGYYCAKDADHGWFEYDYWGQGTQVTVSS
- polyreactivity (PSR sort gate): low polyreactivity

Sequence: QVQLVESGGGLVQAVRSRRLSSAASGSIFYFYPMGWYRQAPGKDREFVAAISSGGSTYYSDSVKGRFTNSRDNAKYTVYLQMNSLKPEDTAVYYCAAVSLYYRYDFWGQGTQVTVSS
- polyreactivity (PSR sort gate): low polyreactivity

Sequence: QVQLVESGGGLVQAGGSLRLSCAHSGYILGGYGMGWYRQAPGKERELVAVITSSGSTDYADSVKGRYTISRDNAMNTVYVQMNTLKPEDSAGYYCAADFLWYIYNIGTSLEYDYWGQGTQVTVSS
- polyreactivity (PSR sort gate): low polyreactivity

Reference: the nanobody polyreactivity screen of Harvey et al. (2022)
